Experimental data from publication PMC9597352.

Biological target: T1, GST-Arl8b, Q9NVJ2
T1 chain: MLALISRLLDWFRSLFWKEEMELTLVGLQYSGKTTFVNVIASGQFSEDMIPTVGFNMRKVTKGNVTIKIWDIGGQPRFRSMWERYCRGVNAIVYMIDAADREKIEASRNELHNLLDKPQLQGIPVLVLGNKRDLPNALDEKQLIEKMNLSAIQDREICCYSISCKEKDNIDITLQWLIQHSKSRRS
Experiment: pull-down; GST-Arl8b on glutathione-agarose beads loaded with 20 mM GTP (TAP lysis buffer, 10 mM MgCl2, 30 min, 4°C), then HEK293T lysates of transfected cells, 2 h, 4°C; anti-FLAG blot
Details: remark: other sources report otherwise

pulldown relative to RUFY1 (densitometry, normalized to input): 2 fold
B1: RUFY3-FLAG, Q7L099 1-469 (natural protein)
chain: MSALTPPTDMPTPTTDKITQAAMETIYLCKFRVSMDGEWLCLRELDDISLTPDPEPTHEDPNYLMANERMNLMNMAKLSIKGLIESALNLGRTLDSDYAPLQQFFVVMEHCLKHGLKAKKTFLGQNKSFWGPLELVEKLVPEAAEITASVKDLPGLKTPVGRGRAWLRLALMQKKLSEYMKALINKKELLSEFYEPNALMMEEEGAIIAGLLVGLNVIDANFCMKGEDLDSQVGVIDFSMYLKDGNSSKGTEGDGQITAILDQKNYVEELNRHLNATVNNLQAKVDALEKSNTKLTEELAVANNRIITLQEEMERVKEESSYILESNRKGPKQDRTAEGQALSEARKHLKEETQLRLDVEKELEMQISMRQEMELAMKMLEKDVCEKQDALVSLRQQLDDLRALKHELAFKLQSSDLGVKQKSELNSRLEEKTNQMAATIKQLEQSEKDLVKQAKTLNSAANKLIPKHH
